How the values were obtained:
[1] = test system: AceMYBS1 (Actinidia eriantha); test: cell_activity; conditions: dual-luciferase, tobacco leaves
[2] = test system: AceMYBS1 + AceGBF3 (Actinidia eriantha); test: cell_activity; conditions: dual-luciferase, co-expression

AceGGP3 promoter (2.6 kb, P2660) gave an activity [1] of 3.74 fold and an activity [2] of 6.67 fold.

Reference: patent US20250154519
